Legend:
[1] = test system: EGFRwt-overexpressing human skin squamous cell carcinoma cell line A431; test: MTS cytotoxicity (cell viability) assay, A431; format: cell-based; conditions: antibodies; 72 hours
Method: (§1) TDC cytotoxic activity was determined via the following experimental procedure: TDC was added to EGFR-overexpressing or […]-expressing human tumor cell culture medium, and cell viability was determined after 72 hours of cell culture. Cell-based in vitro experiments were used to determine cell viability, cytotoxicity and programmed cell death induced by TDC constituted by the present invention.
(§2) In vitro efficacy of antibody-toxin conjugates was determined via a cell proliferation assay. A CellTiter ^96® AqueousOne Solution Cell was Proliferation Assay purchased commercially from Promega Corp. (Madison, WI). CellTiter ^96® Aqueous One Solution Cell Proliferation Assay (a) is a colorimetric method used to detect the number of living cells in cell proliferation and cytotoxicity experiments. The above reagent contains the novel tetrazole compound [3-(4,5-dimethylthiazol-2-yl)-5-(3-carboxymethoxyphenyl)-2-(4-sulfophenyl)-2H-tetrazolium, inner salt; MTS) as well as an electronic coupling agent (phenazine ethosulfate; PES). […] This convenient “single solution” model is an improvement on the first generation of the CellTiter ^96® Aqueous Assay, in which the electronic coupling agent PMS was supplied separately from the MTS solution. MTS (Owen's reagent) is reduced by cellular organisms into a colored formazan product, which can be directly dissolved in culture medium (FIG. 1). This conversion is likely facilitated by NADPH NADH produced by dehydrogenase present in metabolically active cells. For the assay, a small amount of CellTiter ^96® Aqueous One Solution Reagent is added directly to the medium present in the wells of the culture plate, after which incubation is performed for 1 to 4 hours, followed by reading of the absorbance value at 490 nm using a microplate reader.
(§3) The amount of formazan product detected at 490 nm is proportional to the number of viable cells in culture. Because the formazan product of MTS is soluble in tissue culture medium, CellTiter ^96® Aqueous One Solution Assay requires fewer steps than the MTT or INT methods. A431 (EGFR-overexpressing cells) and U87-[…] (an […] mutant stable cell line) were used in the present invention as an investigative system for performing in vitro efficacy assays. In 96-well plates, cells were plated at 6000 cells/well and 24 hours later, antibody spiking was carried out. […] Cell viability was assayed via MTS 72 hours after treatment.

[2] = biological target: T1, Recombinant EGFRVIII-His*6 antigen (Homo sapiens, UniProt P00533, DELINS30-297G); test: ELISA relative affinity for EGFRvIII; format: binding; conditions: EGFRvIII-coated plates, A450, read-out: EC50 (nM), mutant antibody affinity
T1 construct: His*6
Description: Insertion Mutation Modification and Parent Antibody 2A1 for EGFRvIII • ELISA was used to compare the relative affinities of 2A1-LC-Cys110ins-mc-vc-PAB-MMAE TDC, 2A1-LC-Cys111ins-mc-vc-PAB-MMAE TDC, 2A1-LC-Cys142ins-mc-vc-PAB-MMAE TDC, 2A1-HC-Cys254ins-mc-vc-PAB-MMAE TDC, 2A1-HC-Cys255ins-mc-vc-PAB-MMAE TDC, 2A1-HC-Cys258ins-mc-vc-PAB-MMAE TDC, 2A1-HC-Cys259ins-mc-vc-PAB-MMAE TDC, 2A1-HC-Cys354ins-mc-vc-PAB-MMAE TDC, 2A1-HC-Cys355ins-mc-vc-PAB-MMAE TDC, 2A1-HC-Cys357ins-mc-vc-PAB-MMAE TDC, 2A1-HC-Cys378ins-mc-vc-PAB-MMAE TDC, 2A1-HC-Cys379ins-mc-vc-PAB-MMAE TDC, 2A1-HC-Cys386ins-mc-vc-PAB-MMAE TDC, 2A1-HC-Cys387ins-mc-vc-PAB-MMAE TDC, 2A1-HC-Cys410ins-mc-vc-PAB-MMAE TDC, and 2A1 for EGFRvIII. The specific process used was as follows:
Recombinant […]-His*6 antigen was used to coat plates; fish skin gelatin was used as a seal; dilution of each insertion mutant antibody was performed separately, up to a maximum concentration 10 μg/ml and a 4-fold gradient dilution was performed for a total of 11 concentrations; HRP-labeled secondary antibodies were used for incubation; TMB was used for development and absorption detection was performed at 450 nm.

[3] = test system: EFGRvIII-overexpressing human glioma cell line U87-EGFRvIII; test: MTS cytotoxicity (cell viability) assay, U87-EGFRvIII; format: cell-based; conditions: antibodies; 72 hours; read-out: IC50, U87MG-EGFRvIII (MTS)
Method: as §1, §2, §3

Molecule	IC50 [1] [µM]	EC50 [2] [nM]	IC50 [3] [µM]
2A1-HC-Cys387ins: 2A1 antibody with cysteine inserted at heavy chain position 387 (SEQ ID NO: 42) (antibody) heavy: DVQLQESGPSLVKPSQSLSLTCTVTGYSITSDFAWNWIRQFPGNKLEWMGYISYSGNTRYNPSLKSRISITRDTSKNQFFLQLNSVTIEDTATYYCVTAGRGFPYWGQGTLVTVSAASTKGPSVFPLAPSSKSTSGGTAALGCLVKDYFPEPVTVSWNSGALTSGVHTFPAVLQSSGLYSLSSVVTVPSSSLGTQTYICNVNHKPSNTKVDKRVEPKSCDKTHTCPPCPAPEFLGGPSVFLFPPKPKDTLMISRTPEVTCVVVDVSHEDPEVKFNWYVDGVEVHNAKTKPREEQYNSTYRVVSVLTVLHQDWLNGKEYKCKVSNKALPAPIEKTISKAKGQPREPQVYTLPPSRDELTKNQVSLTCLVKGFYPSDIAVEWESNGQPENNCYKTTPPVLDSDGSFFLYSKLTVDKSRWQQGNVFSCSVMHEALHNHYTQKSLSLSPG light: DILMTQSPSSMSVSLGDTVSITCHSSQDINSNIGWLQQRPGKSFKGLIYHGTNLDDEVPSRFSGSGSGADYSLTISSLESEDFADYYCVQYAQFPWTFGGGTKLEIKRTVAAPSVFIFPPSDEQLKSGTASVVCLLNNFYPREAKVQWKVDNALQSGNSQESVTEQDSKDSTYSLSSTLTLSKADYEKHKVYACEVTHQGLSSPVTKSFNRGEC	> 10	0.0452	> 10
2A1-HC-Cys410ins: 2A1 antibody with cysteine inserted at heavy chain position 410 (SEQ ID NO: 44) (antibody) heavy: DVQLQESGPSLVKPSQSLSLTCTVTGYSITSDFAWNWIRQFPGNKLEWMGYISYSGNTRYNPSLKSRISITRDTSKNQFFLQLNSVTIEDTATYYCVTAGRGFPYWGQGTLVTVSAASTKGPSVFPLAPSSKSTSGGTAALGCLVKDYFPEPVTVSWNSGALTSGVHTFPAVLQSSGLYSLSSVVTVPSSSLGTQTYICNVNHKPSNTKVDKRVEPKSCDKTHTCPPCPAPEFLGGPSVFLFPPKPKDTLMISRTPEVTCVVVDVSHEDPEVKFNWYVDGVEVHNAKTKPREEQYNSTYRVVSVLTVLHQDWLNGKEYKCKVSNKALPAPIEKTISKAKGQPREPQVYTLPPSRDELTKNQVSLTCLVKGFYPSDIAVEWESNGQPENNYKTTPPVLDSDGSFFLYSKLTVDCKSRWQQGNVFSCSVMHEALHNHYTQKSLSLSPG light: DILMTQSPSSMSVSLGDTVSITCHSSQDINSNIGWLQQRPGKSFKGLIYHGTNLDDEVPSRFSGSGSGADYSLTISSLESEDFADYYCVQYAQFPWTFGGGTKLEIKRTVAAPSVFIFPPSDEQLKSGTASVVCLLNNFYPREAKVQWKVDNALQSGNSQESVTEQDSKDSTYSLSSTLTLSKADYEKHKVYACEVTHQGLSSPVTKSFNRGEC	> 10	0.042	> 10

— patent US12678474B2, “Screening of fixed-point coupling sites of cysteine-modified antibody-toxin conjugate (TDC)” (SICHUAN BAILI PHARMACEUTICAL CO. LTD., priority 2017, dated 2026)
